Test results from article PMC8573386 (Frontiers in Immunology, 2021).
Changes are numbered by the printed parent chain. Each block holds one binder with its values, some of them ahead of it.

What was measured:
[1] = molecular target: T1, EGFR on EGFR-overexpressing tumor cell line A431 (Homo sapiens, A431 cells, UniProt P00533); assay: cell-based or functional assay
[2] = molecular target: T1, EGFR on EGFR-overexpressing tumor cell …; assay: flow cytometry on cells; EGFR-positive A431 cells incubated 1 h on ice with antibody derivatives 0.05 nM to 1 µM, detected with Alexa Fluor 488 Fab goat antihuman IgG (H+L); apparent binding affinities; conditions: one partner purified

B4: 60E11 IgG (antibody)
VH: QVQLRESGPSLVKPSQTLSLTCTASGFSLSDKAVGWVRQAPGKALEWLGGIDTGGSTGYNPGLKSRLSITKDNSKSQVSLSVSSVTTEDSATYYCTTVHQRTRKTCPDGWRDGSDCPYGHRCGDYDCCGYGCYDGRGTNRFTGVVESYTYEWYVDAWGQGLLVTVSS
VL: EAVLNQPSSVSGSLGQRVSITCSGSSSNVGNGYVSWYQLIPGSAPRTLIYGDTSRASGVPDRFSGSRSGNTATLTISSLQAEDEADYFCASAEDSSSNAVFGSGTTLTVL
notes: synthetic bovine IGHV1-7 (VHBUL) scaffold, FR1 to FR3; ultralong CDR-H3 (stalk and knob) of clone 60E11 from immunised cattle; FR4 of the synthetic VH domain; human IgG1 heavy chain constant regions; as the light chain of m3: bovine VL (V30, VLλ30) deduced from PDB entries that share a CDR-identical light chain; human constant lambda region (CLλ); chimeric IgG1; also called chimeric bovine × …
ADCC EC50 killing: NK cell-mediated lysis of EGFR-overexpressing A431 cells, E:T 5:1 [1]: 0.0033 nM
ADCC mean max killing of A431 cells (normalized to Cetuximab) [1]: 96%
EC50 [2]: 10.1 nM

B6: 60C08 IgG (antibody)
VH: QVQLRESGPSLVKPSQTLSLTCTASGFSLSDKAVGWVRQAPGKALEWLGGIDTGGSTGYNPGLKSRLSITKDNSKSQVSLSVSSVTTEDSATYYCTTVHQKTIETTQKTCPDGYFYADTCWAYSCRCRDCDCCRSSGGCTYSRDSHTATYEWHVDAWGQGLLVTVSS
VL: B4 VL
notes: synthetic bovine IGHV1-7 (VHBUL) scaffold, FR1 to FR3; ultralong CDR-H3 (stalk and knob) of clone 60C08 from immunised cattle; FR4 of the synthetic VH domain; human IgG1 heavy chain constant regions; as the light chain of m3: bovine VL (V30, VLλ30) deduced from PDB entries that share a CDR-identical light chain; human constant lambda region (CLλ); chimeric IgG1; also called chimeric bovine × …
ADCC EC50 killing: NK cell-mediated lysis of EGFR-overexpressing A431 cells, E:T 5:1 [1]: 0.0587 nM
ADCC mean max killing of A431 cells (normalized to Cetuximab) [1]: 92.1%
EC50 [2]: 0.9 nM

Further lines, with some results ahead:

EC50 [2]: 3 nM
B1: 60C03 IgG (antibody)
VH: QVQLRESGPSLVKPSQTLSLTCTASGFSLSDKAVGWVRQAPGKALEWLGGIDTGGSTGYNPGLKSRLSITKDNSKSQVSLSVSSVTTEDSATYYCTTVHQETKKENSCPDGYTSGVECRFRGYTCANDGCWRVCSFTTCSGWMPASDTYRYEYHVDAWGQGLLVTVSS
VL: B4 VL
notes: synthetic bovine IGHV1-7 (VHBUL) scaffold, FR1 to FR3; ultralong CDR-H3 (stalk and knob) of clone 60C03 from immunised cattle; FR4 of the synthetic VH domain; human IgG1 heavy chain constant regions; bovine VL (V30, VLλ30) deduced from PDB entries that share a CDR-identical light chain; human constant lambda region (CLλ); chimeric IgG1; all clones share one fixed light chain and VH scaffold and …
ADCC EC50 killing: NK cell-mediated lysis of EGFR-overexpressing A431 cells, E:T 5:1 [1]: 0.0265 nM
ADCC mean max killing of A431 cells (normalized to Cetuximab) [1]: 103%

EC50 [2]: 1.3 nM
B2: 60D01 IgG (antibody)
VH: QVQLRESGPSLVKPSQTLSLTCTASGFSLSDKAVGWVRQAPGKALEWLGGIDTGGSTGYNPGLKSRLSITKDNSKSQVSLSVSSVTTEDSATYYCTTVHQETTKTASCPDGYAEHFGRGWGYWGCGGCDCCQENGAGGGWGNCGLYSTSYTYEHHIDAWGQGLLVTVSS
VL: B4 VL
notes: synthetic bovine IGHV1-7 (VHBUL) scaffold, FR1 to FR3; ultralong CDR-H3 (stalk and knob) of clone 60D01 from immunised cattle; FR4 of the synthetic VH domain; human IgG1 heavy chain constant regions; as the light chain of m3: bovine VL (V30, VLλ30) deduced from PDB entries that share a CDR-identical light chain; human constant lambda region (CLλ); chimeric IgG1; also called chimeric bovine × …
ADCC EC50 killing: NK cell-mediated lysis of EGFR-overexpressing A431 cells, E:T 5:1 [1]: 0.606 nM
ADCC mean max killing of A431 cells (normalized to Cetuximab) [1]: 76.3%

EC50 [2]: 3 nM
B3: 60F06 IgG (antibody)
VH: QVQLRESGPSLVKPSQTLSLTCTASGFSLSDKAVGWVRQAPGKALEWLGGIDTGGSTGYNPGLKSRLSITKDNSKSQVSLSVSSVTTEDSATYYCTTVHQRTEKIAKCPDGYSDARHCRDGCDCFGWDCFRSGAWAECYYEVYTYVHTYEHHVDAWGQGLLVTVSS
VL: B4 VL
notes: synthetic bovine IGHV1-7 (VHBUL) scaffold, FR1 to FR3; ultralong CDR-H3 (stalk and knob) of clone 60F06 from immunised cattle; FR4 of the synthetic VH domain; human IgG1 heavy chain constant regions; as the light chain of m3: bovine VL (V30, VLλ30) deduced from PDB entries that share a CDR-identical light chain; human constant lambda region (CLλ); chimeric IgG1; also called chimeric bovine × …
ADCC EC50 killing: NK cell-mediated lysis of EGFR-overexpressing A431 cells, E:T 5:1 [1]: 0.0048 nM
ADCC mean max killing of A431 cells (normalized to Cetuximab) [1]: 108%

EC50 [2]: 2.6 nM
B5: 60H05 IgG (antibody)
VH: B1 VH with E101K, K103N, E105L, N106K
VL: B4 VL
notes: synthetic bovine IGHV1-7 (VHBUL) scaffold, FR1 to FR3; ultralong CDR-H3 (stalk and knob) of clone 60H05 from immunised cattle; FR4 of the synthetic VH domain; human IgG1 heavy chain constant regions; as the light chain of m3: bovine VL (V30, VLλ30) deduced from PDB entries that share a CDR-identical light chain; human constant lambda region (CLλ); chimeric IgG1; also called chimeric bovine × …
ADCC EC50 killing: NK cell-mediated lysis of EGFR-overexpressing A431 cells, E:T 5:1 [1]: 0.0164 nM
ADCC mean max killing of A431 cells (normalized to Cetuximab) [1]: 105%
